Data on 1 substance can be found in patent US20060166191A1.

The target of this assay is wild-type Gag expressed from the full-length proviral construct pNL4-3 (HIV-1) (UniProt P12493). Description: cell-based or functional assay.

For the substance “AP3D-5′, AP3 δ subunit residues 1-742 (from UniProt O14617 1-742)”, the cells with particle budding among 100 consecutive 293T cells (thin-section electron microscopy), NL4-3 with AP3D-5′ was 0 cells of 100.
